Data published in paper PMC7790537.

Legend:
[1] = target: recombinant trimeric HA of A/New Caledonia/20/1999 (H1N1) (influenza A virus A/New Caledonia/20/1999 (H1N1)) (UniProt Q6WG00)
[2] = target: recombinant trimeric HA of A/Victoria/210/2009 (H3N2) (influenza A virus A/Victoria/210/2009 (H3N2))

Fab-deficient (ΔFab) IgA2m2 polymer (from UniProt P01591 23-159) (complex)
> 500 µg/mL: HI activity, minimum HI concentration, NC20 virus [1] | HI activity, minimum HI concentration, Vic210 virus [2] | NT activity, minimum virus-neutralizing concentration, Vic210 virus [2]

Fab-deficient (ΔFab) IgA1 polymer (from UniProt P01591 23-159) (complex)
> 500 µg/mL: HI activity, minimum HI concentration, NC20 virus [1] | HI activity, minimum HI concentration, Vic210 virus [2] | NT activity, minimum virus-neutralizing concentration, Vic210 virus [2]
